The results in this text go back to patent publication US20110262366A1.

No end group written: not given here.

Experiment [1] concerns the target endothelial cell receptor on HAEC (human aortic endothelial cells). Description: competition, 50 µM free TKPPR against 1% BRU-114 microbubbles (competitor) on HAEC, static.
In a further experiment the target is VEGF receptors on HUVECs. Description: competition with ^125I-VEGF on HUVECs.
Experiment [2] addresses endothelial cell receptor on HAEC (human aortic endothelial cells). Description: competition, 500 µM free TKPPR against TKPPR-beads (competitor) on HAEC, static, n = 11.
Experiment [3] has the same target. Description: competition, 200 µM free TKPPR against TKPPR-beads (competitor) on HAEC, static, n = 11.
Experiment [4] shares this target. Put plainly: competition, 50 µM free TKPPR against TKPPR-beads (competitor) on HAEC, static, n = 11.
Experiment [5] shares this target. Description: competition, 10 µM free TKPPR against TKPPR-beads (competitor) on HAEC, static, n = 11.
Experiment [6] shares this target. Description: competition, 25 µM free TKPPR against 1% BRU-114 microbubbles (competitor) on HAEC, static.
Experiment [7] shares this target. Put plainly: competition, 50 µM free TKPPR against 5% BRU-114 microbubbles (competitor) on HAEC, static.
The target is the same in experiment [8]. Put plainly: competition, 50 µM free TKPPR against 1% BRU-114 microbubbles (competitor) on HAEC, static. This is another data set of the same source.
For experiment [9] the target is unchanged. Description: competition, 25 µM free TKPPR against 1% BRU-292 microbubbles (competitor) on HAEC, static.
Experiment [10] has the same target. Put plainly: competition, free TKPPR 100 µM (head prints 100 µmol) against 5% DPPE-GTKPPR microbubbles (competitor) on HAEC, static.
Experiment [11] has the same target. Put plainly: competition, 100 µM free TKPPR against 5% BRU-114 microbubbles (competitor) on HAEC, static.
Experiment [12] has the same target. Description: competition, 100 µM free TKPPR against 1% BRU-114 microbubbles (competitor) on HAEC, static.

B1: TKPPR-OH (L-threonyl-L-lysyl-L-prolyl-L-prolyl-L-arginine) (peptide)
peptide: TKPPR-OH
As to B1, the Bubbles Bound in presence of competitor in experiment [1] came to 9 bubbles; in experiment [6], 106 bubbles; in experiment [7], 440 bubbles; in experiment [8], 5 bubbles; in experiment [9], 718 bubbles; in experiment [10], 62 bubbles. For the same molecule, the Bubbles Bound in presence of competitor amounted to 12 bubbles in experiment [11] and 17 bubbles in experiment [12]. In the experiment with VEGF receptors on HUVECs, this molecule registered a 50% inhibitory concentration (IC50) of 250 µM. The % Inhibition in experiment [2] was 70.6%; in [3], 72.2%; in experiment [4], 50.5%; in experiment [5], 30.8%.
